# Laboratory results from paper PMC4641155 (Molecular Imaging and Biology, 2015).
# Where “and” joins values, the source holds several entries; their conditions need not be identical. Equal values may be shown once.
# What was measured:
# [1] = Bladder model fit of urinary excretion; type: in vivo, CD1−/− nude female mice; settings: first-order fit of bladder plus excreted activity
# From the text: (§1) The human organ and body weight values from the standard adult male phantom taken into account are implemented in the internal dosimetry software (OLINDA/EXM v1.1) and are assumed to be constant across individuals. The body weight and organ masses for the individual mice were obtained post-mortem. For the bladder model, the fraction leaving the body via the urinary excretion system (f) and the biological half-life of the excretion (t1/2) were estimated by fitting a first-order linear system to the sum of activity in the bladder and the activity that had been excreted (calculated as total injected activity minus total body activity): y=f1−expln2/t1/2t
# [2] = test system: COLO205 tumors; assay: Ex vivo tumor uptake by γ-counting in COLO205 tumor-bearing mice; set-up: species or system nude mice; settings: mean ± SEM
# Procedure: (§2) Irinotecan was administered by intra-peritoneal (i.p.) injection (80 mg/kg) three times in 1 week every other day (n = 3).
# [3] = Human residence time estimates scaled from mouse μSPECT time-activity curves; type: in vivo, human (extrapolated from mouse); settings: scaled from mouse μSPECT TACs, n = 3 non-purified, n = 6 purified
# From the text: (§3) Volumes of interest (VOIs) were manually drawn on the μSPECT-CT images using PMOD v3.3 (PMOD Technologies, Switzerland) to delineate the regions with distinct SPECT time-activity pattern: heart, liver, kidney, and urinary bladder, as well as whole-body. The average organ activity per volume was obtained from the co-registered μSPECT images and the non-decay corrected time activity curves (TACs) were extracted for each target organ. In order to relate the scanner units (counts/pixel) to radioactivity concentration (kilobecquerel per cubic centimeter), a scanner calibration factor was estimated by scanning a syringe with a known concentration of Tc-99m. TACs for each organ, as well as the TACs representing the activity in the remainder of the body, were fitted by a single exponential decaying function, which was then integrated to obtain the total number of disintegrations (residence time) within these regions. In order to predict human dosimetry using animal data, interspecies extrapolation is necessary. Thus, the residence times (R) were scaled to human values according to the following formula [21]: R/gorganmouse⋅kgTBweightmouse⋅gorgan/kgTBweighthuman=Rhuman
# as §1
# [4] = In vivo plasma metabolite analysis by radio-HPLC; set-up: species or system CD1−/− nude mice; settings: mouse plasma 4 and 24 h p.i., 37 MBq purified tracer i.v., acetonitrile deproteination, radio-RP-HPLC with γ-counted fractions; n = 3 per time point
# Procedure: In vivo metabolite analysis
# Four and 24 h p.i. (n=3 for each […]
# time point) mixed blood was drawn by cardiac puncture, and the mice were euthanized by cervical dislocation. The blood was collected in EDTA-coated tubes and the plasma fraction was obtained by centrifugation (4000 g for 7 min). The plasma (200 µl) was mixed with an equal amount of cold acetonitrile to enable sample deproteination and counted for radioactivity using an automatic γ-counter. After vortexing and centrifuging for 4 min at 4000 g, the supernatant was separated from the pellet and both fractions were γ-counted to calculate the amount of radioactivity extracted in acetonitrile. To study radiometabolite formation, 100 µl of the supernatant were analyzed by RP-HPLC using the method described before. Eluate fractions of 0.5 min were collected and counted for radioactivity in the γ-counter.
# Adult normal CD1-/- nude mice were used to examine the metabolic stability of […]
# According to the radio-HPLC analysis of the plasma samples, the majority of the injected radiotracer remains unchanged after 4 and 24 h p.i. (Figs. 1b and c, respectively).
# One minor polar impurity was detected eluting at 3 min. As it was also visible in the reference […]
# Radiometabolites eluting with a longer retention time (18.5 – 30 min) could also be detected.
# [5] = test system: COLO205 tumors; assay: In vivo tumor uptake by μSPECT-CT in COLO205 tumor-bearing mice; set-up: species or system nude mice; settings: for mean tumor uptake: μSPECT 4 h p.i., 37 MBq i.v., mean ± SEM, n = 6 tumors
# Procedure: as §2
# [6] = Projected human organ absorbed doses and effective dose (OLINDA/EXM); type: in vivo, human (extrapolated from mouse); settings: OLINDA/EXM v1.1, adult male model, 2-h voiding, from mouse data
# From the text: as §3, §1
# Projected human absorbed doses to various organs and the effective doses (ED) were then computed using the aforementioned dosimetry software (weighting factors from International Commission on Radiological Protection 60), with the human residence times as input, using the standard adult male model and the dynamic voiding bladder model (2-h voiding interval).
structure (smiles),measurement,setting,value
CC(C)[C@@H]1NC(=O)[C@H](Cc2ccccc2)NC(=O)[C@@H]2NC(=O)[C@H](Cc3ccccc3)NC(=O)[C@@H]3CCCN3C(=O)CNC(=O)[C@H](Cc3ccccc3)NC(=O)[C@@H]3CNCCCC[C@@H](C(=O)O)NC(=O)[C@@H]4NC(=O)[C@H](CC(N)=O)NC(=O)CNC(=O)[C@H]([C@@H](O)C(=O)O)NC(=O)[C@H](CSC[C@@H](NC(=O)[C@H](CCC(N)=O)NC(=O)[C@H](CCCCNC(=O)c5ccc(NN)nc5)NC(=O)[C@@H](N)CS[C@H]4C)C(=O)N[C@@H](CS[C@H]2C)C(=O)N3)NC1=O [purified [^99mTc]duramycin] [metal not drawn],"f, mean fraction leaving the body via the urinary excretion system",[1],0.697
same,"t 1/2, mean biological half-life of the excretion",[1],2.151 h
same,tumor uptake by γ-counting,[2]; control (vehicle) tumors,0.74 ± 0.04 %I.D./g
same,tumor uptake by γ-counting,[2]; irinotecan-treated tumors,1.65 ± 0.13 %I.D./g
same,"Mean human residence time, heart contents",[3],0.027 h
same,"Mean human residence time, kidneys",[3],0.0549 h
same,"Mean human residence time, liver",[3],0.075 h
same,"Mean human residence time, remaining body",[3],2.54 h
same,"Mean human residence time, urinary bladder contents",[3],6.43 × 10 ^−1 h
same,in vivo plasma (metabolic) stability,[4],unchanged
same,"tumor-to-blood uptake ratio, irinotecan-treated over vehicle-treated mice",[5]; 4 h p.i.,6 fold
same,"tumor-to-muscle uptake ratio, irinotecan-treated over vehicle-treated mice",[5]; 4 h p.i.,2 fold
same,mean tumor uptake,"[5]; irinotecan-treated group, 24 h after last dose",148.50 ± 25.42 %I.D./g/kg
same,mean tumor uptake,[5]; vehicle-treated group,40.58 ± 2.81 %I.D./g/kg
same,"Mean human absorbed dose, total body",[6],1.62 × 10^−3 mGy/MBq
same,"Mean human organ absorbed dose, LLI wall",[6],2.97 × 10^−3 mGy/MBq
same,"Mean human organ absorbed dose, ULI wall",[6],2.03 × 10^−3 mGy/MBq
same,"Mean human organ absorbed dose, adrenals",[6],1.74 × 10^−3 mGy/MBq
same,"Mean human organ absorbed dose, brain",[6],1.14 × 10^−3 mGy/MBq
same,"Mean human organ absorbed dose, breasts",[6],9.59 × 10^−4 mGy/MBq
same,"Mean human organ absorbed dose, gallbladder wall",[6],1.84 × 10^−3 mGy/MBq
same,"Mean human organ absorbed dose, heart wall",[6],1.91 × 10^−3 mGy/MBq
same,"Mean human organ absorbed dose, kidneys",[6],3.63 × 10^−3 mGy/MBq
same,"Mean human organ absorbed dose, liver",[6],1.64 × 10^−3 mGy/MBq
same,"Mean human organ absorbed dose, lungs",[6],1.36 × 10^−3 mGy/MBq
same,"Mean human organ absorbed dose, muscle",[6],1.55 × 10^−3 mGy/MBq
same,"Mean human organ absorbed dose, osteogenic cells",[6],3.92 × 10^−3 mGy/MBq
same,"Mean human organ absorbed dose, ovaries",[6],2.96 × 10^−3 mGy/MBq
same,"Mean human organ absorbed dose, pancreas",[6],1.82 × 10^−3 mGy/MBq
same,"Mean human organ absorbed dose, red marrow",[6],1.48 × 10^−3 mGy/MBq
same,"Mean human organ absorbed dose, skin",[6],9.56 × 10^−4 mGy/MBq
same,"Mean human organ absorbed dose, small intestine",[6],2.22 × 10^−3 mGy/MBq
same,"Mean human organ absorbed dose, spleen",[6],1.59 × 10^−3 mGy/MBq
same,"Mean human organ absorbed dose, stomach wall",[6],1.59 × 10^−3 mGy/MBq
same,"Mean human organ absorbed dose, testes",[6],2.07 × 10^−3 mGy/MBq
same,"Mean human organ absorbed dose, thymus",[6],1.39 × 10^−3 mGy/MBq
same,"Mean human organ absorbed dose, thyroid",[6],1.38 × 10^−3 mGy/MBq
same,"Mean human organ absorbed dose, urinary bladder wall",[6],2.70 × 10^−2 ± 3.05 × 10^−3 mGy/MBq and 2.70 × 10 ^−2 mGy/MBq
same,"Mean human organ absorbed dose, uterus",[6],4.57 × 10^−3 ± 3.42 × 10^−4 mGy/MBq and 4.57 × 10 ^−3 mGy/MBq
